Data: patent publication CN113912720A (BLOOD DISEASES HOSPITAL CHINESE ACADEMY OF MEDICAL SCIENCES …, dated 2022)

Target: T1, 人BCMA蛋白 (on 3T3-BCMA cells) (human, UniProt Q02223 1-54)
T1 construct: extracellular domain; also called 3T3-BCMA细胞表面BCMA蛋白; CD269
T1 sequence (looked up): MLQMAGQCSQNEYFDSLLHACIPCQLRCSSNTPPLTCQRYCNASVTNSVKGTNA
Test: Flow cytometry: PE-labelled 69G8 titrated from 400 nM to 0.025 nM on 3T3-BCMA cells; mean fluorescence fitted with GraphPad Prism 7

B1: 抗人BCMA单克隆抗体69G8 (antibody, V domains shown)
VH: QVQLQQSGAEVVRPGTSVKVSCKASGYAFTNYLIEWVKQRPGQGPEWIGVITPGRGDTKYNAKFAGKATLTADKSSSTAYMQLSSLTFDDSAVYFCARGTTAWFPYWGQGTLVTVSA
VL: DIVLTQSPASLTVSLGQRATISCRASKSVSTSGYSYMHWYQQKPRQPPKLLIYLASNLESGVPARFSGSGSGTDFTLNIHPVEEEDAATYYCQHSRDLPYTFGGGTKLEIKR
notes: also called 69G8抗体; PE标记抗体69G8
A Kd of 13.8 nM was found for B1 in this work.
